Laboratory results as given in patent US20200325220A1 (INSTITUTE FOR RESEARCH IN BIOMEDICINE, published 2020).

What was measured:
recombinant human GM-CSF [1] = target: T1, recombinant human GM-CSF (human, UniProt P04141 18-144); test: SPR, GM-CSF on the chip, antibody then collagen
recombinant human GM-CSF [2] = target: T1, recombinant human GM-CSF; test: SPR, GM-CSF on the chip
[3] = target: T2, type I recombinant human collagen (human, UniProt P02452 162-1218; P08123 80-1119); test: SPR, GM-CSF on the chip, antibody then collagen
recombinant human GM-CSF [4] = target: T1, recombinant human GM-CSF; test: ELISA, plate coated with GM-CSF
recombinant human GM-CSF [5] = target: T1, recombinant human GM-CSF; test: SPR, antibody captured on protein A, GM-CSF then collagen
[6] = target: T2, type I recombinant human collagen; test: as above

T1 sequence (P04141 18-144 limits assumed): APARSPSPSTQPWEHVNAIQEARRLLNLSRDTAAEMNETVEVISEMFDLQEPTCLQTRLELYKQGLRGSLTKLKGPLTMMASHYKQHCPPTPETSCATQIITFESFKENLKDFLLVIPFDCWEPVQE
T2 sequence (P02452 162-1218 limits assumed, chain 1 of 2): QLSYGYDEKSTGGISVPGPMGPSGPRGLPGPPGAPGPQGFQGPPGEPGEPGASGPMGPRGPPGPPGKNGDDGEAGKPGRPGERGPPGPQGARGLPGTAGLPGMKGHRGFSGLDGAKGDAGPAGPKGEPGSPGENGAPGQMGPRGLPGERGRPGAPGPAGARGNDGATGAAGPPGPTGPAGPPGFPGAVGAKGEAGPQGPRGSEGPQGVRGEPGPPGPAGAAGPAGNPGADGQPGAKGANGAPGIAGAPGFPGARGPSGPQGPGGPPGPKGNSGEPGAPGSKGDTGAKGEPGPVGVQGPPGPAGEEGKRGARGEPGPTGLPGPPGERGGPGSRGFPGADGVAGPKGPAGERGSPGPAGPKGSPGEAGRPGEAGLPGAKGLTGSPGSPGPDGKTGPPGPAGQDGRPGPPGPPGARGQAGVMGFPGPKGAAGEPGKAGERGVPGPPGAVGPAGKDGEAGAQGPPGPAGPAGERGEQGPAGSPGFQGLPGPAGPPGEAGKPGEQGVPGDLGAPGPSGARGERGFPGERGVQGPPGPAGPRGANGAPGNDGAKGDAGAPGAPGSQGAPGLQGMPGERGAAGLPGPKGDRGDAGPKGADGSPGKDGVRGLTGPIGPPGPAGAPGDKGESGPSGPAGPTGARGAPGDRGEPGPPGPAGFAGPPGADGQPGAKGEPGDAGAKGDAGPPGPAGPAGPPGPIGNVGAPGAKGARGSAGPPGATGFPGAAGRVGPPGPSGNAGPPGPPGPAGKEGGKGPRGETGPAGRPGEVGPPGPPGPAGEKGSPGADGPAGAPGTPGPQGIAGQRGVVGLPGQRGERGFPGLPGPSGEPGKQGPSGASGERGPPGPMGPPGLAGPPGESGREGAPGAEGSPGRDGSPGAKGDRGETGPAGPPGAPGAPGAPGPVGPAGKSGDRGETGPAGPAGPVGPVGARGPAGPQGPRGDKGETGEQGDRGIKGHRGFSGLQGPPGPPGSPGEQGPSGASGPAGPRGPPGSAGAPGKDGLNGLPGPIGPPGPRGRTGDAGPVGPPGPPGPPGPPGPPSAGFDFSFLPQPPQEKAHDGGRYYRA
T2 sequence (P08123 80-1119 limits assumed, chain 2 of 2): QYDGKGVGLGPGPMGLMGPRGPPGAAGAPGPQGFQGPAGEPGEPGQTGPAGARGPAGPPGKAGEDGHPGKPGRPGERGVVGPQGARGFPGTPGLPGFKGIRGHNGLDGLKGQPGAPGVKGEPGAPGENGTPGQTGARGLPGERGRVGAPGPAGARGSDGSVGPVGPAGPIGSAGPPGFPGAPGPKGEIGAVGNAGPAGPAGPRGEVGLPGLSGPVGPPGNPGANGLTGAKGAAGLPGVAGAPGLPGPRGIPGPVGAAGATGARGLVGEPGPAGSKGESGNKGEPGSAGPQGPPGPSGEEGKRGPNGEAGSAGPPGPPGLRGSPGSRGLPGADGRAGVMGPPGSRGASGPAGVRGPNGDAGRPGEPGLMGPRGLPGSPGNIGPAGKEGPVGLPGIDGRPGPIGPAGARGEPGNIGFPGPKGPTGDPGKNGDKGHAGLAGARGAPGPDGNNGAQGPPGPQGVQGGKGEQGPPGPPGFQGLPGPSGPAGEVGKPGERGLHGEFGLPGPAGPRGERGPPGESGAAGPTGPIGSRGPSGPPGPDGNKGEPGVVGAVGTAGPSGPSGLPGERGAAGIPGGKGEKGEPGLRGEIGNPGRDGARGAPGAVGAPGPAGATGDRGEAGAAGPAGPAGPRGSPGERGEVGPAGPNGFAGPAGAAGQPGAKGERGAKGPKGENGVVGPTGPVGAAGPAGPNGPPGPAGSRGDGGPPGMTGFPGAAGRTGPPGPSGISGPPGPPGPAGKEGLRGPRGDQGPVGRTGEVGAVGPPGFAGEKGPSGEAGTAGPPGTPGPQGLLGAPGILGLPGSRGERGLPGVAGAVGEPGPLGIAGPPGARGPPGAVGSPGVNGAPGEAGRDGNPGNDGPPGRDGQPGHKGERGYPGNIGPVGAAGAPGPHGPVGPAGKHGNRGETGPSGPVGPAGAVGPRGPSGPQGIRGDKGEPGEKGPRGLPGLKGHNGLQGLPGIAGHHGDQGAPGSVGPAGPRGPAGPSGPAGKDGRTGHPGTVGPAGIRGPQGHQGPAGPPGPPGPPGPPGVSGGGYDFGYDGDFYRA

B1: MGD^UCA (antibody, human IgG1, kappa)
heavy: not shown
light: AIRMTQSPSSFSASTGDRVTITCRASQGISSYLAWYQQKPGKAPKLLIYAASTLQSGVPSRFSGSGSGTDFTLTISCLQSEDFATYYCQQYYSYPPDFGQGTRLEIKRTVAAPSVFIFPPSDEQLKSGTASVVCLLNNFYPREAKVQWKVDNALQSGNSQESVTEQDSKDSTYSLSSTLTLSKADYEKHKVYACEVTHQGLSSPVTKSFNRGEC
notes: also called collagen-specific MGD^UCA antibody
B1: no binding (tested: antibody 10 nM) (recombinant human GM-CSF [1]).

B2: FI174 (antibody, V domains shown)
VH: QVQLVQSGAEVRKPGSSVKVSCKTSGGIIRKYALSWVRQAPGQGLEWMGGIIAIFGTTNYAQKFQGRVTINADESTSTVYLELSSLTSEDTAIYYCAGSATYYESRFDYWGQGTLVTVSS
VL: EIVLTQSPGTLSLSPGARATLSCRASQSVSSSSLAWYQQKPGQAPRLLIYDASSRATGIPDRFSGSGSGTDFTLTISRLEPEDFAVYYCHQYGDSRKTFGQGTKVEIKR
notes: also called F1174; FI74
B2: no binding (tested: antibody 10 nM) (recombinant human GM-CSF [1]).

B3: C4 (bispecific antibody, human IgG1, kappa)
heavy: not shown
light: EIVLTQSPGTLSLSPGETAILSCRASQSVSSSLLAWYQQKPGQAPRLLIYGASNRATGIRGRFSGSGSGTDFTLTISRLEPEDFVLYYCQHYGSRVTFGQGTKLEIKRTVAAPSVFIFPPSDEQLKSGTASVVCLLNNFYPREAKVQWKVDNALQSGNSQESVTEQDSKDSTYSLSSTLTLSKADYEKHKVYACEVTHQGLSSPVTKSFNRGEC
notes: also called construct C4; bispecific construct C4
B3: binds (recombinant human GM-CSF [2]).

B4: GCE536 (antibody, human IgG1, kappa)
heavy: not shown
light: EIVLTQSPGTLSLSPGETAILSCRASQSVSSSLLAWYQQKPGQAPRLLIYGASNRATGIRGRFSGSGSGTDFTLTISRLEPEDFVLYYCQHYGSRVTFGQGTKLEIKRTVAAPSVFIFPPSDEQLKSGTASVVCLLNNFYPREAKVQWKVDNALQSGNSQESVTEQDSKDSTYSLSSTLTLSKADYEKHKVYACEVTHQGLSSPVTKSFNRGEC
notes: also called anti-GM-CSF antibody; scaffold antibody
B4: binds (recombinant human GM-CSF [2]); no binding (tested: collagen 50 nM) [3].

B5: C5b (antibody, human IgG1, kappa)
heavy: not shown
light: EIVLTQSPGTLSLSPGETAILSCRASQSVSSSLLAWYQQKPGQAPRLLIYGASNRATGIRGRFSGSGSGTDFTLTISRLEPEDFVLYYCQHYGSRVTFGQGTKLEIKRTVAAPSVFIFPPSDEQLKSGTASVVCLLNNFYPREAKVQWKVDNALQSGNSQESVTEQDSKDSTYSLSSTLTLSKADYEKHKVYACEVTHQGLSSPVTKSFNRGEC
notes: also called construct C5b
B5: binds (recombinant human GM-CSF [4]).

B6: C6b (antibody, human IgG1, kappa)
heavy: not shown
light: EIVLTQSPGTLSLSPGETAILSCRASQSVSSSLLAWYQQKPGQAPRLLIYGASNRATGIRGRFSGSGSGTDFTLTISRLEPEDFVLYYCQHYGSRVTFGQGTKLEIKRTVAAPSVFIFPPSDEQLKSGTASVVCLLNNFYPREAKVQWKVDNALQSGNSQESVTEQDSKDSTYSLSSTLTLSKADYEKHKVYACEVTHQGLSSPVTKSFNRGEC
notes: also called construct C6b
B6: binds (recombinant human GM-CSF [4]).

B7: C5 (antibody, human IgG1, kappa)
heavy: not shown
light: EIVLTQSPGTLSLSPGETAILSCRASQSVSSSLLAWYQQKPGQAPRLLIYGASNRATGIRGRFSGSGSGTDFTLTISRLEPEDFVLYYCQHYGSRVTFGQGTKLEIKRTVAAPSVFIFPPSDEQLKSGTASVVCLLNNFYPREAKVQWKVDNALQSGNSQESVTEQDSKDSTYSLSSTLTLSKADYEKHKVYACEVTHQGLSSPVTKSFNRGEC
notes: also called construct C5
B7: binds (recombinant human GM-CSF [2]).

B8: TT107 (antibody, V domains shown)
VH: QVQLIQSGGGLVKPGGSLRLSCAASGFTFSDYYMSWIRQVPGKGLEWISVISATTGYTDYADSVKGRFTISRDNAKNSVFLQMNSLRVDDMAVYYCAREVLGTAWFDYWGQGTLVTISS
VL: EIVLTQSPGTLSLSPGERATLSCRASQSVTSNYLAWYQQKPGQAPRLLIYGVSRRATGIPDRFSGSGSGTDFALTISRLEPEDFAVYYCQQYRSSPRTFGPGTKVEFKR
notes: also called TT-specific monoclonal antibody
B8: no binding (tested: GM-CSF 50 nM) (recombinant human GM-CSF [5]); no binding (tested: collagen 50 nM) [6].
